Measured values published in patent publication US20240209076A1 (KODIAK SCIENCES, published 2024).
Positions count from the first letter of the chain named. Names and notes keep the numbering of the source.

B1: anti-IL-6 antibody, heavy chain I108S, light chain WT (antibody, IgG1, V domains shown)
VH: EVQLVESGGGLVQPGGSLRLSCAASGFTFSPFAMSWVRQAPGKGLEWVAKISPGGSWTYYSDTVTGRFTFSLDTSKSTAYLQMNSLRAEDTAVYYCARQLWGYYALDSWGQGTLVTVSS
VL: DIQLTQSPSSLSASVGDRVTITCSASISVSYMYWYQQKPGKAPKLLIYDMSNLASGVPSRFSGSGSGTDFTLTISSLQPEDFATYYCMQWSGYPYTFGQGTKVEIK
notes: Full IgG1 tested; V domains derived as in m2
B2: anti-IL-6 antibody, heavy chain L106F, light chain WT (antibody, IgG1, V domains shown)
VH: B1 VH with L106F, S108I
VL: B1 VL
notes: as for B1
B3: anti-IL-6 antibody, heavy chain W57F, light chain WT (antibody, IgG1, V domains shown)
VH: B1 VH with W57F, S108I
VL: B1 VL
notes: as for B1
B4: anti-IL-6 antibody, heavy chain M34W, light chain WT (antibody, IgG1, V domains shown)
VH: B1 VH with M34W, S108I
VL: B1 VL
notes: Full IgG1 tested; VL as in m2
B5: anti-IL-6 antibody, heavy chain WT, light chain I27L (antibody, IgG1, V domains shown)
VH: B1 VH with S108I
VL: B1 VL with I27L
notes: as for B1
B6: anti-IL-6 antibody, heavy chain WT, light chain A25T (antibody, IgG1, V domains shown)
VH: B1 VH with S108I
VL: B1 VL with A25T
notes: as for B1
B7: anti-IL-6 antibody, heavy chain WT, light chain A25S (antibody, IgG1, V domains shown)
VH: B1 VH with S108I
VL: B1 VL with A25S
notes: as for B1
B8: anti-IL-6 antibody, heavy chain WT, light chain I27W (antibody, IgG1, V domains shown)
VH: B1 VH with S108I
VL: B1 VL with I27W
notes: as for B1
B9: anti-IL-6 antibody, heavy chain WT, light chain I27F (antibody, IgG1, V domains shown)
VH: B1 VH with S108I
VL: B1 VL with I27F
notes: as for B1
B10: anti-IL-6 antibody, heavy chain L100Q, light chain WT (antibody, IgG1, V domains shown)
VH: B1 VH with L100Q, S108I
VL: B1 VL
notes: as for B1
B11: anti-IL-6 antibody, light chain M32L (heavy chain WT) (antibody, V domains shown)
VH: B1 VH with S108I
VL: B1 VL with M32L
notes: See note of m2; also called WT / M32L
B12: anti-IL-6 antibody, heavy chain variant II (M34W, G66D, I108V) / light chain variant V (M32L, M50D, M88Q) (antibody, V domains shown)
VH: B1 VH with M34W, G66D, S108V
VL: B1 VL with M32L, M50D, M88Q
notes: See note of m39; also called M34W, G66D, I108V/ M32L, M50D, M88Q; II/V
B13: anti-IL-6 antibody, heavy chain variant II (M34W, G66D, I108V) / light chain variant III (M32L, M50D, N52S, M88Q) (antibody, V domains shown)
VH: B1 VH with M34W, G66D, S108V
VL: B1 VL with M32L, M50D, N52S, M88Q
notes: See note of m39; also called M34W, G66D, I108V/ M32L, M50D, N52S, M88Q; II/III
B14: anti-IL-6 antibody, light chain M88A (heavy chain WT) (antibody, V domains shown)
VH: B1 VH with S108I
VL: B1 VL with M88A
notes: See note of m2; also called WT / M88A
B15: anti-IL-6 antibody, light chain M50D (heavy chain WT) (antibody, V domains shown)
VH: B1 VH with S108I
VL: B1 VL with M50D
notes: See note of m2; also called WT / M50D
B16: anti-IL-6 antibody, heavy chain variant I (M34I, G66D, I108V) / light chain variant III (M32L, M50D, N52S, M88Q) (antibody, human IgG1, V domains shown)
VH: B1 VH with M34I, G66D, S108V
VL: B1 VL with M32L, M50D, N52S, M88Q
notes: also called M34I, G66D, I108V/ M32L, M50D, N52S, M88Q; I/III
B17: anti-IL-6 antibody, light chain M32V (heavy chain WT) (antibody, V domains shown)
VH: B1 VH with S108I
VL: B1 VL with M32V
notes: See note of m2; also called WT / M32V
B18: anti-IL-6 antibody, light chain M88V (heavy chain WT) (antibody, V domains shown)
VH: B1 VH with S108I
VL: B1 VL with M88V
notes: See note of m2; also called WT / M88V
B19: anti-IL-6 antibody, heavy chain variant II (M34W, G66D, I108V) / light chain variant IV (M32L, M50A, N52S, M88Q) (antibody, V domains shown)
VH: B1 VH with M34W, G66D, S108V
VL: B1 VL with M32L, M50A, N52S, M88Q
notes: See note of m39; also called M34W, G66D, I108V/ M32L, M50A, N52S, M88Q; II/IV
B20: anti-IL-6 antibody, light chain D49E (heavy chain WT) (antibody, V domains shown)
VH: B1 VH with S108I
VL: B1 VL with D49E
notes: See note of m2; also called WT / D49E
B21: anti-IL-6 antibody, light chain T96L (heavy chain WT) (antibody, V domains shown)
VH: B1 VH with S108I
VL: B1 VL with T96L
notes: See note of m2; also called WT / T96L
B22: anti-IL-6 antibody, heavy chain variant I (M34I, G66D, I108V) / light chain variant V (M32L, M50D, M88Q) (antibody, V domains shown)
VH: B1 VH with M34I, G66D, S108V
VL: B1 VL with M32L, M50D, M88Q
notes: See note of m39; also called M34I, G66D, I108V/ M32L, M50D, M88Q; I/V
B23: anti-IL-6 antibody, heavy chain variant I (M34I, G66D, I108V) / light chain variant IV (M32L, M50A, N52S, M88Q) (antibody, V domains shown)
VH: B1 VH with M34I, G66D, S108V
VL: B1 VL with M32L, M50A, N52S, M88Q
notes: See note of m39; also called M34I, G66D, I108V/ M32L, M50A, N52S, M88Q; I/IV

The binders below were run against T1, recombinant human IL-6 (human, UniProt P05231 30-212) (assay: SPR (Biacore), supernatant IgG on Protein A, 25 C).
T1 construct: Flowed in solution over the captured antibodies
T1 sequence (P05231 30-212 limits assumed): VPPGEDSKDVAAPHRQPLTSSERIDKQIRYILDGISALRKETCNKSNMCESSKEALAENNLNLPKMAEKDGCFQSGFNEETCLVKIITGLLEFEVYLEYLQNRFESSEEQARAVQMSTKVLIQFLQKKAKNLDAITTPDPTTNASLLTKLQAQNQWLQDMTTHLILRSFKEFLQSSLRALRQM

| Binder | Kd [nM] | koff [s⁻¹] | kon [M⁻¹ s⁻¹] |
| --- | --- | --- | --- |
| B1 | 0.256 | 0.000141 | 554000 |
| B2 | 0.314 | 0.000185 | 591000 |
| B3 | 0.222 | 0.000128 | 577000 |
| B4 | 0.39 | 0.000115 | 296000 |
| B5 | 0.332 | 0.000145 | 437000 |
| B6 | 0.235 | 0.000119 | 508000 |
| B7 | 0.197 | 0.000105 | 535000 |
| B8 | 0.33 | 0.000161 | 487000 |
| B9 | 0.443 | 0.000193 | 436000 |
| B10 | 0.384 | 0.000153 | 398000 |

Each binder was assayed against T1, recombinant human IL-6 (assay: SPR (Biacore), purified IgG on Protein A, 37 C).
Protocol: (§1) Antibodies were captured on a Protein A chip (GE) by injecting 1:20 dilution of cell supernatant at 10 μL/min for 60 seconds. […] The sensor chip was regenerated by a 60 seconds injection of 10 mM Glycine pH 1.7 at flow rate of 50 μL/min. […] For this setup, 1 μg/mL of purified antibody was injected over a Protein A chip at 10 μL/min for 25-28 seconds. Data analysis for supernatant and purified samples were performed using BIAevaluation software (GE). All sensorgrams were double reference subtracted and fit using a 1:1 Langmuir binding model.

| Binder | Kd [nM] | koff [s⁻¹] | kon [M⁻¹ s⁻¹] |
| --- | --- | --- | --- |
| B1 | 0.391 | 0.000336 | 858000 |
| B2 | 0.634 | 0.000541 | 852000 |
| B3 | 0.524 | 0.000453 | 864000 |
| B4 | 0.394 | 0.000236 | 599000 |
| B5 | 0.553 | 0.000449 | 811000 |
| B6 | 0.425 | 0.000378 | 889000 |
| B7 | 0.438 | 0.000342 | 782000 |
| B8 | 0.719 | 0.000764 | 1.06e+06 |
| B9 | 0.685 | 0.00069 | 1.01e+06 |
| B10 | 0.499 | 0.00041 | 823000 |

These binders were tested against T2, recombinant human IL-6 (human, UniProt P05231 30-212) (assay: SPR Biacore, supernatant Ab on Protein A chip, IL-6 analyte, 25 C).
T2 construct: Bought protein
Protocol: as §1
T2 sequence (P05231 30-212 limits assumed): as above

| Binder | Kd [nM] | koff [s⁻¹] | kon [M⁻¹ s⁻¹] |
| --- | --- | --- | --- |
| B11 | 0.199 | 0.000118 | 591000 |
| B12 | 0.231 | 0.000271 | 700000 |
| B13 | 0.37 | 0.000173 | – |
| B14 | 0.282 | 0.000127 | 451000 |
| B15 | 0.138 | 0.000112 | 806000 |
| B16 | 0.552 | 0.0002 | – |
| B17 | 0.23 | 0.000116 | 505000 |
| B18 | 0.239 | 0.000107 | 448000 |
| B19 | 0.297 | 0.00117 | 559000 |
| B20 | 0.241 | 0.000111 | 459000 |
| B21 | 0.259 | 0.000135 | 520000 |
| B22 | 0.386 | – | – |
| B23 | 0.323 | 0.000214 | 462000 |

What follows are binders tested against T2, recombinant human IL-6 (assay: SPR Biacore, purified Ab on Protein A chip, IL-6 analyte, 37 C).
Protocol: as §1

| Binder | Kd [nM] | koff [s⁻¹] | kon [M⁻¹ s⁻¹] |
| --- | --- | --- | --- |
| B11 | 0.395 | 0.00035 | 885000 |
| B12 | 0.465 | 0.000627 | 1.34e+06 |
| B13 | 0.507 | 0.000551 | 1.19e+06 |
| B14 | 2.25 | 0.00132 | 586000 |
| B15 | 0.311 | 0.000464 | 1.49e+06 |
| B16 | 0.625 | 0.000702 | 1.22e+06 |
| B17 | 0.429 | 0.000369 | 861000 |
| B18 | 0.713 | 0.000441 | 619000 |
| B19 | 0.615 | 0.000652 | 1.08e+06 |
| B20 | 0.624 | 0.000417 | 668000 |
| B21 | 0.901 | 0.000795 | 882000 |
| B22 | 0.602 | 0.00073 | – |
| B23 | 0.556 | 0.000757 | 1.15e+06 |
